This test has as its target T1, BcgI A subunit, E53A mutant (UniProt Q07605 1-637, E53A).
T1 sequence (looked up): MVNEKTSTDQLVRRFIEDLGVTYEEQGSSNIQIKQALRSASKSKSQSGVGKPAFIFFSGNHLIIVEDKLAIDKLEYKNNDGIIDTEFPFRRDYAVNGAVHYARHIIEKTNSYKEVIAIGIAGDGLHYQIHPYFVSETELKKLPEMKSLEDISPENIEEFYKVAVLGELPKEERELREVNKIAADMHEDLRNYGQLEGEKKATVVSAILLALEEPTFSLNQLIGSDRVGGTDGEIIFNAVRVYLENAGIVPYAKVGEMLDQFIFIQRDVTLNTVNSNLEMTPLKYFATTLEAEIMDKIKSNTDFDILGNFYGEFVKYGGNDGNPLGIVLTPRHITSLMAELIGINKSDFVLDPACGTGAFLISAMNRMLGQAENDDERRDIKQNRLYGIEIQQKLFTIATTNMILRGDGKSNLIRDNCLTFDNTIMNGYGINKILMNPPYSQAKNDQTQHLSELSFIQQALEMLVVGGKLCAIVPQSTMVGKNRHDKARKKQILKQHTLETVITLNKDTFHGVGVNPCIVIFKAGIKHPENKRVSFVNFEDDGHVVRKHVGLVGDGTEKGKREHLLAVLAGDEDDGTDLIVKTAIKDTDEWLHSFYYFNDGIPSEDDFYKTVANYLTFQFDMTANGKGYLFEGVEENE
The test is described as follows: native MS.

B1: BcgI B subunit (natural protein, UniProt Q07606 1-341, looked up)
chain: MNNLIKYSTFLISDLFDVVIGKTIDGNKAQRNENGTPYITRKATRNGFEFMIDGEKEKLYSGKLPVITIGNETSKPFVQEFHFFTGTKVNICIPKLDLNRNHLLYITTMIENATKMFSYSYTINSTRLKSLKILLPIKGEEPDWDYMNTYISKILSNMEKNFDVQQNDGVSDLRSLKDLSWSQFKMDEIFSINSGVRLTKADMKPGNIPFIGATDSNNGITEFTSSTNASFDGNVLGVNYNGSVVENFYHPYKAVFSDDVKRLKLKNYPNNKHVLLFMKVVILQQKVKYAYGYKFNATRMKEQIILLPTKADGTPDYEFMEQYMMRMENKVVGRTTEKEAD
B1: the binding result was “binds”.
